The values that follow come from doi:10.1101/2020.11.17.387829v1.

Residue numbers refer to the chain shown, from its start. Names may count otherwise. Where two headings read alike, the source gives them in different places.

The Km is the concentration of substrate that gives half-maximal velocity. One may read the kcat as the number of substrate molecules converted per active site and unit of time at saturation.

Substrate in the data set: O=[N+]([O-])c1ccc(O[C@@H]2O[C@H](CO)[C@@H](O)[C@H](O)[C@H]2O)cc1
The experiment in a line: purified protein.

Setting [1] is: average of two wild-type replicates (WT-1 2.4 mM, WT-2 5.3 ± 0.4 mM).
The mark [2] stands for this setting: error exceeds the value, nearly inactive.
Where [3] appears, read: poorly determined fit: large printed errors.

B1: β-glucosidase B (BglB) (Paenibacillus polymyxa) (protein)
chain: MSENTFIFPATFMWGTSTSSYQIEGGTDEGGRTPSIWDTFCQIPGKVIGGDCGDVACDHFHHFKEDVQLMKQLGFLHYRFSVAWPRIMPAAGIINEEGLLFYEHLLDEIELAGLIPMLTLYHWDLPQWIEDEGGWTQRETIQHFKTYASVIMDRFGERINWWNTINEPYCASILGYGTGEHAPGHENWREAFTAAHHILMCHGIASNLHKEKGLTGKIGITLNMEHVDAASERPEDVAAAIRRDGFINRWFAEPLFNGKYPEDMVEWYGTYLNGLDFVQPGDMELIQQPGDFLGINYYTRSIIRSTNDASLLQVEQVHMEEPVTDMGWEIHPESFYKLLTRIEKDFSKGLPILITENGAAMRDELVNGQIEDTGRHGYIEEHLKACHRFIEEGGQLKGYFVWSFLDNFEWAWGYSKRFGIVHINYETQERTPKQSALWFKQMMAKNGF
On to B1, for which, under setting [1], the Km was found to be 3.9 ± 0.3 mM and the catalytic constant (kcat) is 12.4 ± 0.158 s⁻¹.

B2: β-glucosidase B (BglB) (Paenibacillus polymyxa; M224L) (protein)
chain: B1 chain with M224L
Take B2: the Michaelis constant (Km) stood at 4.2 mM and the kcat was found to be 10.51 s⁻¹.

B3: β-glucosidase B (BglB) (Paenibacillus polymyxa; N163E) (protein)
chain: B1 chain with N163E
In the case of B3, where the note is “error exceeds the value”, the Michaelis constant (Km) is 21.4 ± 52.4 mM and the kcat was determined as 1.02 ± 0.483 s⁻¹.

B4: β-glucosidase B (BglB) (Paenibacillus polymyxa; H181M) (protein)
chain: B1 chain with H181M
B4: the Km worked out at 5.6 ± 1.9 mM and the kcat was 11.98 ± 1.807 s⁻¹.

B5: β-glucosidase B (BglB) (Paenibacillus polymyxa; E409W) (protein)
chain: B1 chain with E409W
B5: under setting [2], the Km was found to be 2.5 ± 3.1 mM and the kcat was found to be 0.0017 ± 0.0017 s⁻¹.

B6: β-glucosidase B (BglB) (Paenibacillus polymyxa; F418M) (protein)
chain: B1 chain with F418M
Consider B6, for which, under setting [3], the Michaelis-Menten constant (Km) stood at 29.6 ± 20.5 mM and the kcat came out at 0.37 ± 0.572 s⁻¹.

B7: β-glucosidase B (BglB) (Paenibacillus polymyxa; L174M) (protein)
chain: B1 chain with L174M
Regarding B7, the Km was found to be 4.3 ± 0.3 mM and the catalytic constant (kcat) came out at 14.79 ± 0.405 s⁻¹.
